Results published in US10441541B2, “Methods and compositions for treating osteoarthritis and promoting cartilage formation” (New York University, priority 2015, dated 2019).

How the values were obtained:
[1] = test system: neonatal murine chondrocytes; test: Aggrecan expression in cultured chondrocytes, Alcian Blue staining; type: cell-based; settings: 1 μM
From the text: (Gosset et al., Nat Protoc 2008; 3:1253-1260). […] Following digital quantitation of alcian-blue stained aggrecan in the tissue wells, aggrecan levels are expressed as % control (±SEM) as provided in FIG. 4B.

[2] = molecular target: T1, A3 adenosine receptor (Homo sapiens, UniProt P0DMS8); settings: cited from earlier work
T1 sequence (P0DMS8 1-318): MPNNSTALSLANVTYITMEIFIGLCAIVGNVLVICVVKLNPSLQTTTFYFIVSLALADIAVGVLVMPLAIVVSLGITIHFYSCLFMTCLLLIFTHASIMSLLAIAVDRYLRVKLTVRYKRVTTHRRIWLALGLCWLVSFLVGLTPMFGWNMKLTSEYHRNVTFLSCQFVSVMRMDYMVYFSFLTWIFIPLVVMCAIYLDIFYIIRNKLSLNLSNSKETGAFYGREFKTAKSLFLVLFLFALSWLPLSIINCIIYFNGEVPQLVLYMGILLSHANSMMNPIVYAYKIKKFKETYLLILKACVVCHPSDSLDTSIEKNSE

[3] = test system: rat tibial plateau explants; test: Adenosine release from tibial plateau explants, with and without mechanical loading; type: cell-based
Experimental: 14 to 19 week old male Sprague-Dawly rats were sacrificed and their tibias were harvested. The soft tissue was removed from the bone and the proximal tibia was cut in the growth plate region by using a Low Speed Diamond Wheel Saw-Model 650 (South Bay Technologies, CA, USA). Tibia surface was cut separating the medial and the lateral condyle. Samples were incubated in media containing DMEM-F12, FBS 10%, 100 ug/ml of ascorbic acid, 2 mM of […], 1% of Penicillin, Streptomycin and amphotericin. The explants were incubated with or without IL-1β (5 ng/ml) for 24 hours. After incubation the samples were placed in a glass plate in new media without FBS. The loading was programmed using the block waveform feature in Wintest 7 software of BOSE Electroforce 3200 system (Bose Inc., MN, USA). The specimens were preloaded with uniaxial compressive load that was applied at 0.005 mm/s loading rate under displacement control up to 0.01 mm. Samples undergo cyclic load at 2 Hz for 1800 cycles at 1.5N compressive load under load control. Dwell for 2700s immediately after the end of 1800th cycle. Media samples were collected after 1, 10 and 15 minutes during loading and 15 and 30 minutes after loading. Samples collected for ATP assay were stored immediately on ice.

[4] = test system: murine chondrocytes; test: Expression of adenosine-related enzymes and transporters in chondrocytes (RT-PCR, western blot, immunofluorescence); type: cell-based, mouse
Experimental: (§1) Articular chondrocytes were obtained from C57BL/6 WT or A2AKO newborn mice following a protocol previously described (Thirion et al., Methods in Molecular Medicine 2004; 100:1-14), Primary chondrocytes (80% confluence) were starved for 5h. Cells were treated for 24h with mouse recombinant IL-1β (5 ng/ml) in DMEM containing 10% FBS and 1% Penicillin-Steptomycin. For intracellular ATP assay, cells were collected and lysed with RIPA buffer containing proteases and phosphatase inhibitors. […] ATP was assayed using a bioluminescent ATP determination kit following the manufacturer's instructions. Adenosine was extracted and tested by HPLC as previously described. ATP and adenosine data were normalized following protein quantification.
After cell treatments, the total protein extracts were collected and stored at −80° C. Total protein fractions were quantified using the BCA kit (Thermo Scientific). Western blotting was performed by electrophoresing […] protein through a 10% polyacrylamide gel followed by transfer of proteins to nitrocellulose membranes. […] Membranes were scanned with Li-cor Odyssey equipment and the intensities of the protein bands were quantified by densitometric analysis using Image Studio 2.0 38 software. […]

[5] = test system: primary murine chondrocytes; test: ATP and adenosine content and release of primary chondrocytes after IL-1β; type: cell-based, mouse; settings: 5 ng/ml for 24 hours
Experimental: as §1

Question: Which aggrecan expression ([1]; Alcian Blue staining of cultured chondrocyte matrix, preliminary experiments) does the source give for CCNC(=O)[C@H]1O[C@@H](n2cnc3c(N)nc(NCCc4ccc(CCC(=O)O)cc4)nc32)[C@H](O)[C@@H]1O [CGS21680] here?
Answer: nearly two-fold increase

Question: And the “amount of alcian blue-stained material in wells” value ([1]; in the absence or presence of IL-1)?
Answer: greatest amount of alcian blue-stained material

Question: With Nc1ncnc2c1ncn2[C@@H]1O[C@H](CO)[C@@H](O)[C@H]1O [adenosine] as the molecule, how does the affinity for adenosine [2] read?
Answer: low-micromolar range

B1: IL-1β: Mouse and rat recombinant Il-1β from R&D Systems, inflammatory stimulus (protein, UniProt P10749 118-269, looked up)
Interleukin-1 beta: VPIRQLHYRLRDEQQKSLVLSDPYELKALHLNGQNINQQVIFSMSFVQGEPSNDKIPVALGLKGKNLYLSCVMKDGTPTLQLESVDPKQYPKKKMEKRFVFNKIEVKSKVEFESAEFPNWYISTSQAEHKPVFLGNNSGQDIIDFTMESVSS
modifications: rat protein also used
notes: Mouse and rat recombinant Il-1β from R&D Systems, inflammatory stimulus
Question: With B1 as the molecule, how does the “adenosine release from cartilage explants” value ([3]; explants without loading) read?
Answer: reduced adenosine release

Question: What about the “adenosine release after weight loading” value ([3]; pre-treatment 5 ng/ml for 24 hours, loading within physiologic range, n=5, without pre-treatment 1657±177 nM) of the same molecule?
Answer: 960 ± 57 nM

Question: What about the “message of ENTPD1, NT5E, PANX1, SLC29A1, SLC29A2 and ANKH” value ([4]; 5 ng/ml for 24 hours, RT-PCR, n=4) of the same molecule?
Answer: significantly decrease message

Question: What about the “NT5E protein expression and localization on chondrocyte surface” value ([4]; 5 ng/ml, western blot and immunofluorescence) of the same molecule?
Answer: decreased NTSE protein expression and its localization on chondrocyte surface

Question: What about the “ATP released into the supernates” value [5] of the same molecule?
Answer: 66±3 % of control

Question: And the “adenosine concentration in the supernates” value [5]?
Answer: 65 % of control

Question: What about the “intracellular ATP” value [5] of the same molecule?
Answer: 61±9 % of control

Question: What about the “adenosine concentration in the supernates” value ([5]; n=9, control 143±14 nM) of the same molecule?
Answer: 94 ± 14 nM
